Laboratory results from US20160251438A1 (LUDWIG INSTITUTE FOR CANCER RESEARCH, published 2016).

Key:
[1] = biological target: T1, GARP R163E / TGF-β1 complex (human, UniProt Q14392 20-662; P01137 30-390); assay: flow cytometry on transfected 293T cells, 5 ug/ml; grade of Loss of binding read by footnote 2
Source text: (§1) Resolution of the crystal structure of MHG-8 Fab/GARP/TGF-β1 complexes and analysis with the CONTACT software allowed the identification of 22 amino-acids in GARP, 8 amino-acids in LAP and 6 amino-acids in mature TGF-β1 that are located less than 5 Å away from an amino-acid of the light or heavy chain of the MHG-8 Fab (Tables 7a, b and c, and Table 8). Directed mutagenesis was used to construct plasmids encoding HA-tagged forms of GARP or TGF-β1 that are mutated at one, two, or three of these 36 positions (all mutations constructed are indicated in Table 8). […] Antibodies were used at a saturating concentration of 5 μg/ml for labeling. Binding of each antibody to a given mutant GARP/TGF-β1 complex was compared to their binding to wild type (WT) complexes, by determining an I_{m/wt} value (i.e. intensity of binding to mutant by comparison to WT). This value was calculated as follows: I_{m/wt} of antibody X=[Geom on mutant−Geom on control]/[Geom on WT−Geom on control]
(§2) The level of residual binding of anti-GARP or anti-LAP antibodies to each mutant was then calculated by comparison to WT, taking into account the expression levels of mutant and WT forms as measured with anti-HA antibodies. Residual binding was calculated as follows: Residual binding by an anti-GARP or anti-LAP antibody=[I_{m/wt} with anti-GARP or anti-LAP antibody]/[I_{m/wt} with anti-HA antibody]

[2] = biological target: GARP R163A/T165A / TGF-β1 complex (human, UniProt Q14392 20-662; P01137 30-390); assay: as above
Source text: as §1, §2

[3] = biological target: GARP / TGF-β1 E146R complex (human, UniProt Q14392 20-662; P01137 30-390); assay: as above
Source text: as §1, §2

[4] = biological target: GARP G139N / TGF-β1 complex (human, UniProt Q14392 20-662; P01137 30-390); assay: as above
Source text: as §1, §2

[5] = biological target: GARP Y137H/S138G/G139N / TGF-β1 complex (human, UniProt Q14392 20-662; P01137 30-390); assay: as above
Source text: as §1, §2

[6] = biological target: GARP E189A / TGF-β1 complex (human, UniProt Q14392 20-662; P01137 30-390); assay: as above
Source text: as §1, §2

[7] = biological target: GARP G118L/G119L / TGF-β1 complex (human, UniProt Q14392 20-662; P01137 30-390); assay: as above
Sequence of GARP G118L/G119L / TGF-β1 complex (Q14392 20-662 G118L/G119L limits assumed, chain 1 of 2): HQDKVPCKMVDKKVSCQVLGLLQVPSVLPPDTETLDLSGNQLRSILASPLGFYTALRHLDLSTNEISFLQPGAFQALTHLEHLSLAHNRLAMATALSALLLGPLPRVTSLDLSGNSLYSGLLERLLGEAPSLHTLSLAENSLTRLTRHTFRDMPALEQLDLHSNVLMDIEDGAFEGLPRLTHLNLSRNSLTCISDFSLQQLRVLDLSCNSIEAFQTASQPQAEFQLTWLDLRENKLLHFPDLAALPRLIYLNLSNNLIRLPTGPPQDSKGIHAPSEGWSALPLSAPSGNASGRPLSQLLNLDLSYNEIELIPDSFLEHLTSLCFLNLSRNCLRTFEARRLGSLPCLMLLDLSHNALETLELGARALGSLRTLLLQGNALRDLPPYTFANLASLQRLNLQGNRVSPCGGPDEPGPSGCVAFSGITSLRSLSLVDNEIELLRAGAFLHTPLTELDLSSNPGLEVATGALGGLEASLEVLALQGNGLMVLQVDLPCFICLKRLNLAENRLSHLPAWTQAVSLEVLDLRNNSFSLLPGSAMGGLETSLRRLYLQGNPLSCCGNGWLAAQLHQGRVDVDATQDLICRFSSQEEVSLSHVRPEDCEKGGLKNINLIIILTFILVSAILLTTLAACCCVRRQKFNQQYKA
Sequence of GARP G118L/G119L / TGF-β1 complex (P01137 30-390 limits assumed, chain 2 of 2): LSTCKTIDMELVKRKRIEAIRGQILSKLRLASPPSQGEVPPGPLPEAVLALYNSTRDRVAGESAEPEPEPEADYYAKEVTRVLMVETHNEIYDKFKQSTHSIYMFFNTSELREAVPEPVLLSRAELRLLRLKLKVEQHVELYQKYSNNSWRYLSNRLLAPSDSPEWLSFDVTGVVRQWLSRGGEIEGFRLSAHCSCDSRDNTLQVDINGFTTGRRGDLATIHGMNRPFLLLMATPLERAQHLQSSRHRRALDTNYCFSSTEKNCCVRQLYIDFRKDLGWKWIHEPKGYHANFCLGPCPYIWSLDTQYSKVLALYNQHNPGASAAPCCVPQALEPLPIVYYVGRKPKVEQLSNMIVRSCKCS
Source text: as §1, §2

[8] = biological target: GARP / TGF-β1 E100A complex (human, UniProt Q14392 20-662; P01137 30-390); assay: as above
Source text: as §1, §2

[9] = biological target: GARP S138G / TGF-β1 complex (human, UniProt Q14392 20-662; P01137 30-390); assay: as above
Source text: as §1, §2

[10] = biological target: GARP / TGF-β1 Q269Y complex (human, UniProt Q14392 20-662; P01137 30-390); assay: as above
Source text: as §1, §2

[11] = biological target: GARP / TGF-β1 Y284A complex (human, UniProt Q14392 20-662; P01137 30-390); assay: as above
Sequence of GARP / TGF-β1 Y284A complex (Q14392 20-662 limits assumed, chain 1 of 2): as the sequence (Q14392 20-662 G118L/G119L limits assumed, chain 1 of 2) above, with L99G, L100G counted along it
Sequence of GARP / TGF-β1 Y284A complex (P01137 30-390 Y284A limits assumed, chain 2 of 2): as the sequence (P01137 30-390 limits assumed, chain 2 of 2) above, with Y255A counted along it
Source text: as §1, §2

[12] = biological target: GARP R170A / TGF-β1 complex (human, UniProt Q14392 20-662; P01137 30-390); assay: as above
Source text: as §1, §2

[13] = biological target: GARP S116N / TGF-β1 complex (human, UniProt Q14392 20-662; P01137 30-390); assay: as above
Source text: as §1, §2

[14] = biological target: GARP / TGF-β1 L271R/Q272Y/S273W complex (human, UniProt Q14392 20-662; P01137 30-390); assay: as above
Source text: as §1, §2

[15] = biological target: GARP A114R / TGF-β1 complex (human, UniProt Q14392 20-662; P01137 30-390); assay: as above
Source text: as §1, §2

[16] = biological target: GARP / TGF-β1 R58A complex (human, UniProt Q14392 20-662; P01137 30-390); assay: as above
Sequence of GARP / TGF-β1 R58A complex (Q14392 20-662 limits assumed, chain 1 of 2): as the sequence (Q14392 20-662 G118L/G119L limits assumed, chain 1 of 2) above, with L99G, L100G counted along it
Sequence of GARP / TGF-β1 R58A complex (P01137 30-390 R58A limits assumed, chain 2 of 2): as the sequence (P01137 30-390 limits assumed, chain 2 of 2) above, with R29A counted along it
Source text: as §1, §2

[17] = biological target: T1, GARP R163E / TGF-β1 complex; assay: FACS 293T, 5 ug/ml, normalised to anti-HA
Source text: as §1, §2

[18] = biological target: GARP R143Y / TGF-β1 complex (human, UniProt Q14392 20-662; P01137 30-390); assay: FACS 293T, 5 ug/ml, normalised to anti-HA
Source text: as §1, §2

[19] = biological target: GARP Y137H / TGF-β1 complex (human, UniProt Q14392 20-662; P01137 30-390); assay: FACS 293T, 5 ug/ml, normalised to anti-HA
Source text: as §1, §2

T1 sequence (Q14392 20-662 R163E limits assumed, chain 1 of 2): as the sequence (Q14392 20-662 G118L/G119L limits assumed, chain 1 of 2) above, with L99G, L100G, R144E counted along it
T1 sequence (P01137 30-390 limits assumed, chain 2 of 2): as the sequence (P01137 30-390 limits assumed, chain 2 of 2) above

B1: LHG-10 (antibody, human IgG1, V domains shown)
VH: EVQLVQPGAELRNSGASVKVSCKASGYRFTSYYIDWVRQAPGQGLEWMGRIDPEDGGTKYAQKFQGRVTFTADTSTSTAYVELSSLRSEDTAVYYCARNEWETVVVGDLMYEYEYWGQGTQVTVSS
VL: DIQMTQSPTSLSASLGDRVTITCQASQSISSYLAWYQQKPGQAPKLLIYGASRLQTGVPSRFSGSGSGTSFTLTISGLEAEDAGTYYCQQYDSLPVTFGQGTKVELK
notes: llama-derived V regions in a full human IgG1
68%: residual binding (% of WT) [18]
48%: residual binding (% of WT) [17]
≥ 50%: residual binding on mutant by comparison to WT [2] | residual binding on mutant by comparison to WT [3] | residual binding on mutant by comparison to WT [4] | residual binding on mutant by comparison to WT [6] | residual binding on mutant by comparison to WT [7] | residual binding on mutant by comparison to WT [8] | residual binding on mutant by comparison to WT [9] | residual binding on mutant by comparison to WT [10] | residual binding on mutant by comparison to WT [11] | residual binding on mutant by comparison to WT [12] | residual binding on mutant by comparison to WT [13] | residual binding on mutant by comparison to WT [14] | residual binding on mutant by comparison to WT [15] | residual binding on mutant by comparison to WT [16]
62%: residual binding (% of WT) [19]
< 50%: residual binding on mutant by comparison to WT [1] | residual binding on mutant by comparison to WT [5]
